Tests used:
[1] = molecular target: the molecule itself; experiment: NMR 15N spin relaxation (overall correlation time against that computed for the helix); 0.05 and 0.5 mM XS20, 0.5 mM XS23, 0.5 mM XS26 in NMR buffer (5 mM KPi, 10 mM NaCl, 2 mM β-mercaptoethanol, pH 6.8), 25 °C, 800 MHz
[2] = molecular target: T1, human HSP72 (named HSP70) (human, UniProt P0DMV8 1-641); experiment: NMR titration; 15N-HSQC signal intensity; 0.07 mM 15N/13C XS26 with fresh 0.14 mM unlabelled HSP70 or HSP90 (1:2), 25 °C, 20 mM Hepes, 10 mM NaCl, 5 mM MgCl2, 2 mM ATP, 1 mM DTT, pH 6.8; details: both partners purified
T1 construct: Unlabelled in the NMR titrations; 2 mM ATP and 5 mM MgCl2 in the buffer
T1 sequence (P0DMV8 whole entry): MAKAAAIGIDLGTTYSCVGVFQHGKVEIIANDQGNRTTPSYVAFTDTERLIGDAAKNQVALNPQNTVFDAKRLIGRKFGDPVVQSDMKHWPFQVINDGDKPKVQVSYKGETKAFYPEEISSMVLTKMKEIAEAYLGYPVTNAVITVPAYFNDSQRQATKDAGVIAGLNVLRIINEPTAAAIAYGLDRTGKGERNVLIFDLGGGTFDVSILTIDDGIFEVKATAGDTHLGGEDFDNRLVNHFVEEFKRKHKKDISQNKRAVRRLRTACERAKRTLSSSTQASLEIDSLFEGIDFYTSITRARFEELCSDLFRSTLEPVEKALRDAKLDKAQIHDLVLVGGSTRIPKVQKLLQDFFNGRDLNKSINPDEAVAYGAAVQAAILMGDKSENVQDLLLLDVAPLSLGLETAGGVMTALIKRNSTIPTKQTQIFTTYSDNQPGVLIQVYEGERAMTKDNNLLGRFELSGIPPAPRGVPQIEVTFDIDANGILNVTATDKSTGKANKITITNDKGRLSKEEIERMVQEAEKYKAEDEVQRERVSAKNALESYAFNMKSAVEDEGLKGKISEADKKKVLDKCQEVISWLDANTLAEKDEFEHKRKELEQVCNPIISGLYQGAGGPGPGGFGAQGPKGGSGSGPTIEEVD

[3] = molecular target: T2, human HSP90β (named HSP90) (human, UniProt P08238 1-724); experiment: as above; details: both partners purified
T2 construct: Unlabelled in the NMR titrations
T2 sequence (P08238 whole entry): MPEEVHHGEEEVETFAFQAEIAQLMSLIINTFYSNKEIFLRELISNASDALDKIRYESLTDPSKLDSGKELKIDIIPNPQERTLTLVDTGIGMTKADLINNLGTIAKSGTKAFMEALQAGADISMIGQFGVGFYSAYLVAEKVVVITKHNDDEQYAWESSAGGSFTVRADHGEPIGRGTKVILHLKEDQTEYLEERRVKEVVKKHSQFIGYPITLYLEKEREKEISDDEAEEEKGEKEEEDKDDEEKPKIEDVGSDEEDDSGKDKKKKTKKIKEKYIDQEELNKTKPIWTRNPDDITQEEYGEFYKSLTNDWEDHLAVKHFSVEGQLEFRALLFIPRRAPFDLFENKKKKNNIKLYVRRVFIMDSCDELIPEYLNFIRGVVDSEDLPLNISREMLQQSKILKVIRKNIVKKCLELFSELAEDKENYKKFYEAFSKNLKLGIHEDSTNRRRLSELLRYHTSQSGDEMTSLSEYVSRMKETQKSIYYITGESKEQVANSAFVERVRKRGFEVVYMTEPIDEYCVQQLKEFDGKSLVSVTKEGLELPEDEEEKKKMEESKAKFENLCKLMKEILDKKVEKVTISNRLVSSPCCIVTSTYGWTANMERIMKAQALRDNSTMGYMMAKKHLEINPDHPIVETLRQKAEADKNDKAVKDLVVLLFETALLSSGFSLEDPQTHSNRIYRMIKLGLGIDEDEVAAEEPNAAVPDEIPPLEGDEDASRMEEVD

[4] = molecular target: the molecule itself; experiment: NMR 15N spin relaxation (overall correlation time against that computed for the helix); 0.5 mM 15N/13C XS20 in NMR buffer (5 mM KPi, 10 mM NaCl, 2 mM β-mercaptoethanol, pH 6.8), 5 °C, 800 MHz

Row | Binder | binding result [1] | binding result [2] | binding result [3] | binding result [4]
1 | human PHOX2B fragment 228-314 with a +3 Ala expansion (XS23) (domain or fragment, UniProt Q99453 228-314, looked up, PHOX2B, human, residues 228-314 (wild-type numbering) with 3 alanines added to the 20-alanine tract (241-260); Made by mutagenic PCR; 15N/13C-labelled for NMR; also called +3 Ala variant; +3 PARM; not shown: Thioredoxin, N-terminal, cleaved; His6, N-terminal, cleaved) GPGGPGGEPGKGGAAAAAAAAAAAAAAAAAAAAAAAGGLAAAGGPGQGWAPGPGPITSIPDSLGGPFASVLSSLQRPNGAKAALVKSSMF | binds |  |  | 
2 | human PHOX2B fragment 228-314 with a +6 Ala expansion (XS26) (domain or fragment, UniProt Q99453 228-314, looked up, Made by mutagenic PCR; 15N/13C-labelled for NMR titrations; also called +6 Ala variant; expanded PHOX2B; not shown: Thioredoxin, N-terminal, cleaved; His6, N-terminal, cleaved) GPGGPGGEPGKGGAAAAAAAAAAAAAAAAAAAAAAAAAAGGLAAAGGPGQGWAPGPGPITSIPDSLGGPFASVLSSLQRPNGAKAALVKSSMF | binds | binds | binds | 
3 | human PHOX2B fragment 228-314 (XS20) (domain or fragment, UniProt Q99453 228-314, looked up, Paired mesoderm homeobox protein 2B (PHOX2B), human, residues 228-314, holds the 20-alanine tract (residues 241-260); 15N/13C-labelled for NMR; also called PHOX2B C-terminal fragment; wild-type PHOX2B; not shown: Thioredoxin, N-terminal, cleaved; His6, N-terminal, cleaved) GPGGPGGEPGKGGAAAAAAAAAAAAAAAAAAAAGGLAAAGGPGQGWAPGPGPITSIPDSLGGPFASVLSSLQRPNGAKAALVKSSMF |  |  |  | binds

— paper PMC10908835, “Alternative low-populated conformations prompt phase transitions in polyalanine repeat expansions” (Nature Communications, 2024)
